Laboratory results from patent US6407221.
One block for each molecule: values may come before it.

Experiments:
Test in all cases: cell-based or functional assay
CD3 epsilon (human) = CD3 epsilon (human) (UniProt P07766)
[1] = molecular target: Jurkat Ti β chain (human)
[2] = molecular target: CD4-zeta chimeric receptor F2 (human) (UniProt P01730)
[3] = molecular target: CD4-zeta chimeric receptor F3 (human) (UniProt P01730)
native CD4 (human) = native CD4 (human) (UniProt P01730)
[4] = molecular target: human HLA Class 1 antigens
wild-type CD8 protein = wild-type CD8 protein (UniProt P01732)
UniProt P01732, sequence (P01732 other isoform, or with tags, fused parts or gaps mutant): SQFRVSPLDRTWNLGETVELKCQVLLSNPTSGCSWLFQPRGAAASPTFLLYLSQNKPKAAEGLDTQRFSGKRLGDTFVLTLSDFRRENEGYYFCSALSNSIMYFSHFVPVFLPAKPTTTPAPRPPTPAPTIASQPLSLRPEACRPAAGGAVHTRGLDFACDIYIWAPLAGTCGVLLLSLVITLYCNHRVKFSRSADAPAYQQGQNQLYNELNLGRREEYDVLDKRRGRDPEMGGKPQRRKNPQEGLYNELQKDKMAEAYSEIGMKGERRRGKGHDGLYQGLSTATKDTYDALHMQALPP

CD8/zeta chimera (human) = CD8/zeta chimera (human) (UniProt P01732)

Molecule: OKT4A (antibody)
IL2 produced relative to stimulation with Ionomycin, Jurkat clone F2/1A11 (relative to Ionomycin = 100) [2]: 86 | IL2 produced relative to stimulation with Ionomycin, Jurkat clone F2/1D1 (relative to Ionomycin = 100) [2]: 60 | absolute level of IL2 produced, Jurkat clone F2/1A11 [2]: 543 pg/mL | absolute level of IL2 produced, Jurkat clone F2/1D1 [2]: 683 pg/mL | IL2 produced relative to stimulation with Ionomycin, Jurkat clone F3/2.2 (relative to Ionomycin = 100) [3]: 160 | IL2 produced relative to stimulation with Ionomycin, Jurkat clone F3/2.7 (relative to Ionomycin = 100) [3]: 210 | absolute level of IL2 produced, Jurkat clone F3/2.2 [3]: 1200 pg/mL | absolute level of IL2 produced, Jurkat clone F3/2.7 [3]: 671 pg/mL | IL2 produced relative to stimulation with Ionomycin, Jurkat clone CD4/1F7 (relative to Ionomycin = 100) (native CD4 (human)): 0.3 | IL2 produced relative to stimulation with Ionomycin, Jurkat clone CD4/4.1 (relative to Ionomycin = 100) (native CD4 (human)): 2 | absolute level of IL2 produced, Jurkat clone CD4/1F7 (native CD4 (human)): 19 pg/mL | absolute level of IL2 produced, Jurkat clone CD4/4.1 (native CD4 (human)): 9 pg/mL

Molecule: W6/32 (antibody)
IL2 produced relative to stimulation with Ionomycin, Jurkat clone CD4/1F7 (relative to Ionomycin = 100) [4]: 0.1 | IL2 produced relative to stimulation with Ionomycin, Jurkat clone CD4/4.1 (relative to Ionomycin = 100) [4]: 0.7 | IL2 produced relative to stimulation with Ionomycin, Jurkat clone F2/1A11 (relative to Ionomycin = 100) [4]: 10 | IL2 produced relative to stimulation with Ionomycin, Jurkat clone F2/1D1 (relative to Ionomycin = 100) [4]: 11 | IL2 produced relative to stimulation with Ionomycin, Jurkat clone F3/2.2 (relative to Ionomycin = 100) [4]: 3 | IL-2 (Units/ml), JCD8/zeta 2, W6/32 + PMA, experiment #1 [4]: < 0.1 Units/ml | IL-2 (Units/ml), JCD8/zeta 2, W6/32 + PMA, experiment #2 [4]: < 0.1 Units/ml | IL-2 (Units/ml), Jurkat CD8, W6/32 + PMA, experiment #1 [4]: < 0.1 Units/ml | IL-2 (Units/ml), Jurkat CD8, W6/32 + PMA, experiment #2 [4]: < 0.1 Units/ml | absolute level of IL2 produced, Jurkat clone CD4/1F7 [4]: 3 pg/mL | absolute level of IL2 produced, Jurkat clone CD4/4.1 [4]: 3 pg/mL | absolute level of IL2 produced, Jurkat clone F2/1A11 [4]: 104 pg/mL | absolute level of IL2 produced, Jurkat clone F2/1D1 [4]: 123 pg/mL | absolute level of IL2 produced, Jurkat clone F3/2.2 [4]: 19 pg/mL | absolute level of IL2 produced, Jurkat clone F3/2.7 [4]: 0 pg/mL

Now from value to molecule:

IL2 produced relative to stimulation with Ionomycin, Jurkat clone CD4/1F7 (relative to Ionomycin = 100) (CD3 epsilon (human)): 38 | IL2 produced relative to stimulation with Ionomycin, Jurkat clone CD4/4.1 (relative to Ionomycin = 100) (CD3 epsilon (human)): 65 | IL2 produced relative to stimulation with Ionomycin, Jurkat clone F2/1A11 (relative to Ionomycin = 100) (CD3 epsilon (human)): 51 | IL2 produced relative to stimulation with Ionomycin, Jurkat clone F2/1D1 (relative to Ionomycin = 100) (CD3 epsilon (human)): 59 | IL2 produced relative to stimulation with Ionomycin, Jurkat clone F3/2.2 (relative to Ionomycin = 100) (CD3 epsilon (human)): 65 | IL2 produced relative to stimulation with Ionomycin, Jurkat clone F3/2.7 (relative to Ionomycin = 100) (CD3 epsilon (human)): 92 | absolute level of IL2 produced, Jurkat clone CD4/1F7 (CD3 epsilon (human)): 2100 pg/mL | absolute level of IL2 produced, Jurkat clone CD4/4.1 (CD3 epsilon (human)): 309 pg/mL | absolute level of IL2 produced, Jurkat clone F2/1A11 (CD3 epsilon (human)): 918 pg/mL | absolute level of IL2 produced, Jurkat clone F2/1D1 (CD3 epsilon (human)): 671 pg/mL | absolute level of IL2 produced, Jurkat clone F3/2.2 (CD3 epsilon (human)): 481 pg/mL | absolute level of IL2 produced, Jurkat clone F3/2.7 (CD3 epsilon (human)): 295 pg/mL
Molecule: OKT3 (antibody)

IL-2 (Units/ml), JCD8/zeta 2, C305 + PMA, experiment #1 [1]: 3.7 Units/ml | IL-2 (Units/ml), JCD8/zeta 2, C305 + PMA, experiment #2 [1]: 2.1 Units/ml | IL-2 (Units/ml), Jurkat CD8, C305 + PMA, experiment #1 [1]: 13.5 Units/ml | IL-2 (Units/ml), Jurkat CD8, C305 + PMA, experiment #2 [1]: 9.1 Units/ml | internalization of the TCR after overnight incubation of JCD8/zeta 2 with saturating C305 [1]: 94%
Molecule: C305 (antibody)

IL-2 (Units/ml), Jurkat CD8, OKT8 + PMA, experiment #1 (wild-type CD8 protein): < 0.1 Units/ml | IL-2 (Units/ml), Jurkat CD8, OKT8 + PMA, experiment #2 (wild-type CD8 protein): < 0.1 Units/ml | IL-2 (Units/ml), JCD8/zeta 2, OKT8 + PMA, experiment #1 (CD8/zeta chimera (human)): 6.8 Units/ml | IL-2 (Units/ml), JCD8/zeta 2, OKT8 + PMA, experiment #2 (CD8/zeta chimera (human)): 7 Units/ml
B1: OKT8 (antibody, from another filing, V domains shown)
VH: EVQLQQSGAELVKPGASVKLSCTASGFNIKDTYIHFVRQRPEQGLEWIGRIDPANDNTLYASKFQGKATITADTSSNTAYMHLCSLTSGDTAVYYCGRGYGYYVFDHWGQGTTLTVSS
VL: DVQINQSPSFLAASPGETITINCRTSRSISQYLAWYQEKPGKTNKLLIYSGSTLQSGIPSRFSGSGSGTDFTLTISGLEPEDFAMYYCQQHNENPLTFGAGTKLELK
